Data on seven substances can be found in patent publication US20230287598A1.

Values joined by “and” are separate entries in the source; they are usually repeats but may differ in a detail not shown here. Identical values can stand only once. Like-named read-outs stand apart in the source and are kept apart here.

Assay [1] concerns the target CXCR1 (UniProt P25024). Briefly: flow cytometry, CXCR1-U2OS / parental U2OS; HC BLV1H12+CDR3-IL8. For orientation: A flow cytometer gives signals particle by particle.
Assay [2] deals with CXCR1 (UniProt P25024). Briefly: flow cytometry on CXCR1-U2OS cells, supernatant IgG (parental U2OS: 76).
For assay [3], the target named is CXCR1 (UniProt P25024). The experiment in a line: cell-based or functional assay.
In assay [4] the target is CXCR1 (UniProt P25024). The experiment in a line: cell-based or functional assay. The source holds these as a separate data set.
The next assay has as its target Kv1.3 (human) (UniProt P22001). Briefly: cell-based or functional assay.

Sequence of Kv1.3 (human) (P22001 whole entry): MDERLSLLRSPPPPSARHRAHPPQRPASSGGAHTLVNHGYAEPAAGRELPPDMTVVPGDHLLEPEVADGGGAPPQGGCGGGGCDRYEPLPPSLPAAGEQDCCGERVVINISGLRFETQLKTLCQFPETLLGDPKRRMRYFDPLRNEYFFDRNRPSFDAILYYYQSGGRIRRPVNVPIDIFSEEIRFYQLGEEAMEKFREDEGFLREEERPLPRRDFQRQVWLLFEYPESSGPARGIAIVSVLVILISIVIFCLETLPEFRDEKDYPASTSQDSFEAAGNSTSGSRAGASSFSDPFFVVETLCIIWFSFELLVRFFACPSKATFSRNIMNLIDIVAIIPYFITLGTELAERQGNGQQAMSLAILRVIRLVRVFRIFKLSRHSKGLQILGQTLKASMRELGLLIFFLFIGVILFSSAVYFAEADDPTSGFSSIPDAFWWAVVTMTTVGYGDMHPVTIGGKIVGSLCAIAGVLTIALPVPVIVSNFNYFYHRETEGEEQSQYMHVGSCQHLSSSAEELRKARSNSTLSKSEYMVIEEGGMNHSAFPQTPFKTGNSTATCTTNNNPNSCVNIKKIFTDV
Sequence of CXCR1 (P25024 whole entry): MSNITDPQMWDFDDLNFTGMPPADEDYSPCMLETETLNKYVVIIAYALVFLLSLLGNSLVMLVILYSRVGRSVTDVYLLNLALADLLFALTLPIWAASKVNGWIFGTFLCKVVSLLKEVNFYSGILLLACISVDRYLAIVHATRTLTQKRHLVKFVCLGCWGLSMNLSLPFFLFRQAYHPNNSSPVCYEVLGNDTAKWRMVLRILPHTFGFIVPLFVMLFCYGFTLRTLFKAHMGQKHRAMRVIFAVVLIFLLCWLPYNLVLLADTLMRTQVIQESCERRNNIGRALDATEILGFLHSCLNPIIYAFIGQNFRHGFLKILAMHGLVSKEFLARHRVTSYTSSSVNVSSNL
Sequence of IL-8 (P10145 28-99 limits assumed): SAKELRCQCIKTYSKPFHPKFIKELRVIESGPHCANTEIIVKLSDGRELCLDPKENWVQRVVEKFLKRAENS
Sequence of soluble IL-8 (P10145 28-99 limits assumed): as above

In the case of “BLV1H12+CDR3-IL8 / BLV1H12 light chain (SEQ ID NO: 412) IgG (antibody)”, the FACS CXCR1/Parental Ratio with CXCR1 [1] was 5.

On to BLV1H12+CDR3-IL8 IgG (antibody), for which, in the assay with CXCR1 [2], the Median Arbitrary Fluorescence Units (AFU) came out at 707 AFU. In the assay with CXCR1 [3], this substance displayed a CXCR1 activation, average RLU at 0.001 nM IgG of 7440 RLU; a CXCR1 activation, average RLU at 0.004 nM IgG of 7240 RLU; a CXCR1 activation, average RLU at 0.01 nM of 435 RLU; a CXCR1 activation, average RLU at 0.013 nM IgG of 7330 RLU. Besides, in the assay with CXCR1 [3], the CXCR1 activation, average RLU at 0.040 nM IgG was found to be 7740 RLU; the CXCR1 activation, average RLU at 0.08 nM was found to be 822 RLU; the CXCR1 activation, average RLU at 0.120 nM IgG was found to be 8870 RLU; the CXCR1 activation, average RLU at 0.23 nM was 1520 RLU. Besides, in the assay with CXCR1 [3], the CXCR1 activation, average RLU at 0.359 nM IgG was found to be 13300 RLU; the CXCR1 activation, average RLU at 0.69 nM came to 2650 RLU; the CXCR1 activation, average RLU at 1.076 nM IgG is 23700 RLU; the CXCR1 activation, average RLU at 2.06 nM was determined as 3640 RLU. In the assay with CXCR1 [3], the CXCR1 activation, average RLU at 3.228 nM IgG is 34500 RLU; the CXCR1 activation, average RLU at 6.17 nM came out at 4430 RLU; the CXCR1 activation, average RLU at 9.685 nM IgG was found to be 39300 RLU; the CXCR1 activation, average RLU at 18.52 nM turned out to be 5070 RLU. For the same substance, in the assay with CXCR1 [3], the CXCR1 activation, average RLU at 29.056 nM IgG stood at 47600 RLU; the CXCR1 activation, average RLU at 55.56 nM is 5510 RLU; the CXCR1 activation, average RLU at 87.167 nM IgG was 52100 RLU; the CXCR1 activation, average RLU at 166.67 nM was 6210 RLU. In the assay with CXCR1 [3], this substance gave a CXCR1 activation, average RLU at 261.500 nM IgG of 56300 RLU and a CXCR1 activation, average RLU at 500.00 nM of 6640 RLU.

In the assay with CXCR1 [3], BLV1H12-IL8 (antibody) had a CXCR1 activation, luminescence, 0.1 nM IL-8 domains of 4520 luminescence; a CXCR1 activation, luminescence, 0.5 nM IL-8 domains of 9940 luminescence; a CXCR1 activation, luminescence, 2.2 nM IL-8 domains of 17600 luminescence; a CXCR1 activation, luminescence, 9.9 nM IL-8 domains of 25300 luminescence. In the assay with CXCR1 [3], the CXCR1 activation, luminescence, 44 nM IL-8 domains was 32600 luminescence and the CXCR1 activation, luminescence, 200 nM IL-8 domains was found to be 32200 luminescence.

With “IL-8 (from UniProt P10145 28-99) (ligand)”, in the assay with CXCR1 [4], the CXCR1 activation, luminescence at 0.4 nM IL-8 domains came to 6530; the CXCR1 activation, luminescence at 1.6 nM IL-8 domains is 12200; the CXCR1 activation, luminescence at 6.25 nM IL-8 domains came to 28600; the CXCR1 activation, luminescence at 25 nM IL-8 domains stood at 50500. The substance also returned a CXCR1 activation, luminescence at 100 nM IL-8 domains with CXCR1 [4] of 70200. In the assay with CXCR1 [3], this substance registered a CXCR1 activation, average RLU at 0.01 nM of 440 RLU; a CXCR1 activation, average RLU at 0.08 nM of 504 RLU; a CXCR1 activation, average RLU at 0.23 nM of 940 RLU; a CXCR1 activation, average RLU at 0.69 nM of 1940 RLU. In the assay with CXCR1 [3], this substance displayed a CXCR1 activation, average RLU at 2.06 nM of 4110 RLU; a CXCR1 activation, average RLU at 6.17 nM of 5870 RLU; a CXCR1 activation, average RLU at 18.52 nM of 7300 RLU; a CXCR1 activation, average RLU at 31.5 nM of 55500 RLU. Also, in the assay with CXCR1 [3], the CXCR1 activation, average RLU at 55.56 nM turned out to be 7360 RLU; the CXCR1 activation, average RLU at 166.67 nM came to 6770 RLU; the CXCR1 activation, average RLU at 500.00 nM turned out to be 5720 RLU; the CXCR1 activation, luminescence at 0.4 nM IL-8 domains stood at 4930. Further, in the assay with CXCR1 [3], the CXCR1 activation, luminescence at 1.6 nM IL-8 domains was found to be 8730; the CXCR1 activation, luminescence at 6.25 nM IL-8 domains turned out to be 22300; the CXCR1 activation, luminescence at 25 nM IL-8 domains worked out at 42200; the CXCR1 activation, luminescence at 100 nM IL-8 domains was 54000.

Regarding “IgG VH4-4 CDR3 BsaI (lacking the IL-8 insert) (antibody)”, in the assay with CXCR1 [3], the CXCR1 activation, average RLU at 0.001 nM IgG stood at 7500 RLU; the CXCR1 activation, average RLU at 0.004 nM IgG was determined as 7390 RLU; the CXCR1 activation, average RLU at 0.013 nM IgG worked out at 7050 RLU; the CXCR1 activation, average RLU at 0.040 nM IgG was found to be 6970 RLU. In the assay with CXCR1 [3], this substance had a CXCR1 activation, average RLU at 0.120 nM IgG of 7330 RLU; a CXCR1 activation, average RLU at 0.359 nM IgG of 6690 RLU; a CXCR1 activation, average RLU at 1.076 nM IgG of 7180 RLU; a CXCR1 activation, average RLU at 3.228 nM IgG of 7030 RLU. Also, in the assay with CXCR1 [3], the CXCR1 activation, average RLU at 9.685 nM IgG was found to be 7170 RLU; the CXCR1 activation, average RLU at 29.056 nM IgG came out at 7100 RLU; the CXCR1 activation, average RLU at 87.167 nM IgG was found to be 7140 RLU; the CXCR1 activation, average RLU at 261.500 nM IgG came out at 7540 RLU.

As for Negative Control IgG (antibody), in the assay with Kv1.3 (human), the IL-2 ELISA (A450), Donor 1, 0.01 nM IgG was 2 A450 and 2.15 A450; the IL-2 ELISA (A450), Donor 1, 0.75 nM IgG was 2.11 A450 and 2.04 A450; the IL-2 ELISA (A450), Donor 1, 68 nM IgG was 1.48 A450 and 1.55 A450; the IL-2 ELISA (A450), Donor 2, 0.01 nM IgG was 1.61 A450 and 1.48 A450. Also, in the assay with Kv1.3 (human), the IL-2 ELISA (A450), Donor 2, 0.75 nM IgG was 1.56 A450 and 1.52 A450; the IL-2 ELISA (A450), Donor 2, 68 nM IgG is 1.5 A450 and 1.37 A450; the TNF-α ELISA (A450), Donor 1, 0.01 nM IgG was 1.62 A450 and 1.66 A450; the TNF-α ELISA (A450), Donor 1, 0.75 nM IgG is 1.69 A450 and 1.65 A450. In addition, in the assay with Kv1.3 (human), the TNF-α ELISA (A450), Donor 1, 68 nM IgG was 1.02 A450 and 1.13 A450; the TNF-α ELISA (A450), Donor 2, 0.01 nM IgG is 2.07 A450 and 1.77 A450; the TNF-α ELISA (A450), Donor 2, 0.75 nM IgG is 2.04 A450 and 1.85 A450; the TNF-α ELISA (A450), Donor 2, 68 nM IgG was 1.88 A450 and 1.54 A450.

In the assay with CXCR1 [3], “soluble IL-8 (from UniProt P10145 28-99) (ligand)” yielded a CXCR1 activation, luminescence, 0.1 nM IL-8 domains of 4200 luminescence; a CXCR1 activation, luminescence, 0.5 nM IL-8 domains of 9790 luminescence; a CXCR1 activation, luminescence, 2.2 nM IL-8 domains of 25700 luminescence; a CXCR1 activation, luminescence, 9.9 nM IL-8 domains of 50300 luminescence. Further, in the assay with CXCR1 [3], the CXCR1 activation, luminescence, 44 nM IL-8 domains was found to be 54100 luminescence and the CXCR1 activation, luminescence, 200 nM IL-8 domains was 50400 luminescence.
